{
  "source": "patent US20170184612A1",
  "about": "“USE OF LEUKOCYTES AND NOVEL BIOMARKERS IN THE DIAGNOSIS, CONFIRMATION, AND TREATMENT OF A NEUROLOGICAL DISORDER” (The Trustees of Columbia University in the City of New York, priority 2014, published 2017)",
  "biological_target": "SIINFEKL-MHC-I (SIINFEKL peptide bound to MHC-I H-2Kb) (chicken; mouse)",
  "test": "cell-based or functional assay",
  "data": [
    {"sequence": "T cell receptor of OT-1 CD8+ T cells (TCR)", "values": [
      {"measurement": "neuronal death (TH+ neurons killed by CTLs)", "result": 55, "unit": "%"}
    ]}
  ]
}
